Data reported in patent US20190142971A1, “FORMULATION AND DELIVERY OF MODIFIED NUCLEOSIDE, NUCLEOTIDE, AND NUCLEIC ACID COMPOSITIONS” (ModernaTX, Inc., priority 2013, published 2019).

Test system: non-human primates (cynomolgus monkey)
Test: Example 22: NHP hematology: neutrophils, reticulocytes, HGB, HCT, RBC (Tables 40-44)
Assay type: in vivo
Method: LNP formulations, shown in Table 33 (above), were administered to non-human primates (NHP) (cynomolgus monkey) (n=2) as intravenous injection (IV). The NHP were administered a single modified mRNA IV dose of 0.5 mg/kg, 0.05 mg/kg or 0.005 mg/kg of G-CSF or EPO in a dose volume of 0.5 mL/kg. The NHPs were bled before dosing with the modified mRNA LNP formulations to determine protein expression in the serum and a baseline complete blood count. After administration with the G-CSF modified mRNA formulation the NHP were bled at 8, 24, 48 and 72 hours to determined protein expression. After administration with the EPO modified mRNA formulation the NHP were bled at 8, 24, 48, 72 hours and 7 days to determined protein expression.
Samples collected from the NHPs after they were administered with G-CSF or EPO modified mRNA formulations were analyzed by ELISA to determine protein expression. Neutrophil and reticulocyte count was also determined pre-dose, 24 hours, 3 days, 7 days, 14 days and 18 days after administration of the modified G-CSF or EPO formulation.

[1] = 0.05 mg/kg, 14/18 days, Female NHP
[2] = 0.05 mg/kg, 14/18 days, Male NHP
[3] = 0.05 mg/kg, 24 hours, Female NHP
[4] = 0.05 mg/kg, Pre-dose, Female NHP
[5] = 0.5 mg/kg, 14/18 days, Female NHP
[6] = 0.5 mg/kg, 14/18 days, Male NHP
[7] = 0.5 mg/kg, 24 hours, Female NHP
[8] = 0.5 mg/kg, Pre-dose, Female NHP

B1: G-CSF: modified mRNA encoding human G-CSF, SEQ ID NO: 4, Cap1, fully modified with 5-methylcytosine and pseudouridine; LNP-formulated in Examples 16-22 (nucleic acid)
chain: GGGAAAUAAGAGAGAAAAGAAGAGUAAGAAGAAAUAUAAGAGCCACCAUGGCCGGUCCCGCGACCCAAAGCCCCAUGAAACUUAUGGCCCUGCAGUUGCUGCUUUGGCACUCGGCCCUCUGGACAGUCCAAGAAGCGACUCCUCUCGGACCUGCCUCAUCGUUGCCGCAGUCAUUCCUUUUGAAGUGUCUGGAGCAGGUGCGAAAGAUUCAGGGCGAUGGAGCCGCACUCCAAGAGAAGCUCUGCGCGACAUACAAACUUUGCCAUCCCGAGGAGCUCGUACUGCUCGGGCACAGCUUGGGGAUUCCCUGGGCUCCUCUCUCGUCCUGUCCGUCGCAGGCUUUGCAGUUGGCAGGGUGCCUUUCCCAGCUCCACUCCGGUUUGUUCUUGUAUCAGGGACUGCUGCAAGCCCUUGAGGGAAUCUCGCCAGAAUUGGGCCCGACGCUGGACACGUUGCAGCUCGACGUGGCGGAUUUCGCAACAACCAUCUGGCAGCAGAUGGAGGAACUGGGGAUGGCACCCGCGCUGCAGCCCACGCAGGGGGCAAUGCCGGCCUUUGCGUCCGCGUUUCAGCGCAGGGCGGGUGGAGUCCUCGUAGCGAGCCACCUUCAAUCAUUUUUGGAAGUCUCGUACCGGGUGCUGAGACAUCUUGCGCAGCCGUGAAGCGCUGCCUUCUGCGGGGCUUGCCUUCUGGCCAUGCCCUUCUUCUCUCCCUUGCACCUGUACCUCUUGGUCUUUGAAUAAAGCCUGAGUAGGAAG
modifications: Cap1, 5-methylcytosine, pseudouridine
0.05 mg/kg IV, Pre-dose
  Male NHP Neutrophils: 13.74 10^9/L
[1]
  HCT: 0.4 L/L
  RBC: 5.26 10^12/L
[2]
  HCT: 0.44 L/L
  RBC: 5.43 10^12/L
[3]
  HCT: 0.4 L/L
  RBC: 5.08 10^12/L
0.05 mg/kg, 24 hours, Male NHP
  HCT: 0.39 L/L
  RBC: 4.96 10^12/L
0.05 mg/kg, 3 days, Female NHP
  HCT: 0.39 L/L
  RBC: 5.04 10^12/L
0.05 mg/kg, 3 days, Male NHP
  HCT: 0.41 L/L
  RBC: 5.13 10^12/L
0.05 mg/kg, 7 days, Female NHP
  HCT: 0.4 L/L
  RBC: 5.05 10^12/L
0.05 mg/kg, 7 days, Male NHP
  HCT: 0.42 L/L
  RBC: 5.17 10^12/L
[4]
  HCT: 0.44 L/L
  RBC: 5.64 10^12/L
0.05 mg/kg, Pre-dose, Male NHP
  HCT: 0.44 L/L
  RBC: 5.68 10^12/L
0.5 mg/kg IV, 14/18 days
  Female NHP HGB: 113 g/L
  Female NHP Neutrophils: 1.98 10^9/L
  Male NHP HGB: 98 g/L
  Male NHP Neutrophils: 2.58 10^9/L
0.5 mg/kg IV, 24 hours
  Female NHP HGB: 112 g/L
  Female NHP Neutrophils: 13.96 10^9/L
  Male NHP HGB: 113 g/L
  Male NHP Neutrophils: 14.92 10^9/L
0.5 mg/kg IV, 3 days
  Female NHP HGB: 114 g/L
  Female NHP Neutrophils: 13.7 10^9/L
  Male NHP HGB: 118 g/L
  Male NHP Neutrophils: 9.76 10^9/L
0.5 mg/kg IV, 7 days
  Female NHP HGB: 116 g/L
  Female NHP Neutrophils: 3.81 10^9/L
  Male NHP HGB: 115 g/L
  Male NHP Neutrophils: 2.74 10^9/L
0.5 mg/kg IV, Pre-dose
  Female NHP HGB: 129 g/L
  Female NHP Neutrophils: 1.27 10^9/L
  Male NHP HGB: 133 g/L
  Male NHP Neutrophils: 1.53 10^9/L
[5]
  HCT: 0.37 L/L
  RBC: 4.92 10^12/L
[6]
  HCT: 0.34 L/L
  RBC: 4.21 10^12/L
[7]
  HCT: 0.38 L/L
  RBC: 4.96 10^12/L
0.5 mg/kg, 24 hours, Male NHP
  HCT: 0.37 L/L
  RBC: 4.66 10^12/L
0.5 mg/kg, 3 days, Female NHP
  HCT: 0.38 L/L
  RBC: 4.97 10^12/L
0.5 mg/kg, 3 days, Male NHP
  HCT: 0.39 L/L
  RBC: 4.91 10^12/L
0.5 mg/kg, 7 days, Female NHP
  HCT: 0.38 L/L
  RBC: 5.04 10^12/L
0.5 mg/kg, 7 days, Male NHP
  HCT: 0.39 L/L
  RBC: 4.8 10^12/L
[8]
  HCT: 0.43 L/L
  RBC: 5.57 10^12/L
0.5 mg/kg, Pre-dose, Male NHP
  HCT: 0.46 L/L
  RBC: 5.57 10^12/L
All dose groups
  neutrophils relative to pre-dose levels: increase in neutrophils
